According to patent US20210388068A1:

Columns and labels:
[1] = target: MBP-CfaE-N Arg145Ala mutant (enterotoxigenic Escherichia coli (ETEC)) (UniProt P25734); experiment: ELISA on plate-bound MBP-CfaE-N Arg145Ala mutant, OD405
[2] = target: MBP-CfaE-N Arg67Ala mutant (enterotoxigenic Escherichia coli (ETEC)) (UniProt P25734); experiment: ELISA on plate-bound MBP-CfaE-N Arg67Ala mutant, OD405
[3] = target: MBP-CfaE-N Thr91Ala mutant (enterotoxigenic Escherichia coli (ETEC)) (UniProt P25734); experiment: ELISA on plate-bound MBP-CfaE-N Thr91Ala mutant, OD405
[4] = target: MBP-CfaE-N Asn127Ala mutant (enterotoxigenic Escherichia coli (ETEC)) (UniProt P25734); experiment: ELISA on plate-bound MBP-CfaE-N Asn127Ala mutant, OD405

B1: anti-CfaE HuMab 68-90 (antibody, human IgG1, V domains shown)
VH: QVQLQQWGAGLLKPSETLSLTCAVYGGSFSAYYWSWIRQPPGKGLEWIGEINHSGNTNYNPSLESRVTISVDTSKNQVSLKQSSVTAADTAVYYCARNWGPNAFDIWGRGTMVTVSS
VL: DIQMTQSPSSVSASVGDRVTITCRASQDITSWLVWYQHKPGKAPKLLIYAASSLQSGVPSRFSGSGSGTDFTLTISSLQPEDFATYYCQQANIFPYTFGQGTKLEIK
- EC50 (read off the curve) [1]: 0.03 µg/mL
- EC50 (read off the curve) [2]: 0.04 µg/mL
- EC50 (read off the curve) [3]: 0.02 µg/mL
- EC50 (read off the curve) [4]: 0.01 µg/mL

B2: anti-CfaE HuMab 68-61 (antibody, human IgG1, V domains shown)
VH: QVQLVQSGAEVKNPGSSVRVSCEASGGTFSSFAISWVRQAPGQGLEWMGRIIPILDIVKYAQRFQGRVTISADKSTSTAYMELSSLRSEGTAVYYCARDDIAGSDFDIWGQGTMVTVSS
VL: DIQMTQSPSSLSASVGDRVTITCRASQGISSWLAWYQQKPEKAPKSLIYAASSLQSGVPSRFSGSGSGTDFTLTISSLQPEDFATYYCQQYTSYPYTFGQGTKLEIK
- EC50 (read off the curve) [1]: 0.03 µg/mL
- EC50 (read off the curve) [2]: 0.04 µg/mL

B3: anti-CfaE HuMab 68-48 (antibody, human IgG1, V domains shown)
VH: QVQLQQWGAGLLKPSETLSLTCAVYGGSFSGYSWSWIRQSPGKGLEWIGEIYHSGSTNYNPSLKSRVTISGDTSKNQFSLKLSSVTAADTAVYYCARENLQGYYYYGMDVWGQGTTVTVSS
VL: AIQLTQSPSSLSASVGDRVTITCRASQGISSSLAWYQQKPGKAPKLLIYDASSLESGVPSRFSGSGSGTDFTLTISSLQPEDFATYYCQQFNSYPRTFGQGTKVEIK
- EC50 (read off the curve) [1]: 0.03 µg/mL
- EC50 (read off the curve) [2]: 0.04 µg/mL
